Patent publication US20250127857A1, “A COMPOSITION COMPRISING IL-36 AND/OR IL-18 FOR USE IN TREATING OCULAR DISORDERS” (THE PROVOST, FELLOWS, FOUNDATION SCHOLARS, & THE OTHER …, priority 2021, published 2025)

Experiments:
Format in all cases: cell-based, human
[1] = test system: HRMEC transwell monolayer; assay: Permeability assay (4 kDa FITC dextran flux, Papp); details: 100 ng/ml, 6 or 24 hour exposure
Protocol: HRMEC were grown on transwells (Corning) for 5-7 days to polarize. The cells were placed in low serum media and treated with IL-36 cytokines for 6 or 24 hours, before 4 kDa FITC dextran (Sigma) diluted to 1 mg/ml in low serum media was placed in the apical chamber. Sampling aliquots were periodically removed from the basal chamber and placed in a 96 well plate. The basolateral chamber was then replenished with fresh media. This was repeated at 20-minute intervals for 2 hours. The fluorescence of FITC dextran was measured using a fluorescent plate-reader (BioTek) at an excitation wavelength of 485 nm and an emission wavelength of 520 nm. Relative fluorescence units (RFU) were converted to ng/ml using a FITC dextran standard curve and corrected for background fluorescence and serial dilutions over the course of the experiment. The apparent permeability coefficient (Papp) was calculated as follows: […]
where dQ/dT is the apparent rate of FITC dextran appearance in the basolateral chamber, A (cm^2) is the surface area of the insert, C0 (mg/ml) is the initial FITC-dextran concentration in the apical chamber. dQ/dT is the slope (y=mx+c) calculated by plotting the cumulative amount (Q) against time(s).

[2] = test system: VEGFR2; assay: qPCR of VEGFR2 expression in HRMEC treated with IL-36 cytokines; details: treatment over timepoints
From the text: Primers used were sourced from Sigma.

[3] = test system: HRMEC; assay: HRMEC scratch wound healing / migration with IL-36 cytokines; details: treatment applied at time of scratch, 100 ng/ml
Protocol: FIG. 4 illustrates IL-36 cytokines promote endothelial cell migration, wherein (A, B) are representational images of the HRMEC ‘scratch’ healing with (A) IL-36α (B) IL-36β treatment compared to control at 10× magnification, wherein purple dotted lines equate to the size of the wound as imaged using Image J; (C) is rate of wound healing in HRMEC treated with IL-36α expressed as % wound closure, representational of N=4 experiments, wherein two-way ANOVA was performed as statistical test; (D) is a comparison of the level of wound healing between untreated (unt.) and 100 ng/ml IL-36α at 4 and 24 hr post scratch, consolidated N=4 experiments, wherein two-way ANOVA with multiple comparison was performed as statistical test; (E) is rate of wound healing in HRMEC treated with IL-36β expressed as % wound closure, representational of N=4 experiments, wherein two-way ANOVA with multiple comparison performed as statistical test; (F) is a comparison of the level of wound healing between no treatment and 100 ng/ml IL-36β at 4 and 24 hr post scratch, consolidated N=4 experiments, wherein two-way ANOVA with multiple comparison was performed as statistical test;
Cells were seeded on to a 12-well plate and grown until they reached confluency. […] The area within the scratch was quantified using ImageJ software, and each timepoint was normalised to its baseline and expressed as % closure.

[4] = test system: VE-cadherin; assay: Western blot for VE-cadherin protein expression; details: HRMEC, 24 h
Protocol: (§1) FIG. 6 illustrates IL-36 cytokines alter the protein levels of adherens and tight junction components in endothelial cells, wherein (A, B) are Western blot for VE-cadherin protein expression in response to (A) IL-36α, (B) IL-36β treatment for 24 hours at indicated doses in HRMEC, representative N=4 experiments; (C, D) are Western blot for the expression of tight junction proteins ZO-1, tricellulin and occludin in response to (C) IL-36α and (D) IL-36β treatment at indicated concentrations for 24 hours in HRMEC, representative of N=3 experiments; (E) is rate of flux of 70 kDa FITC dextran through HRMEC transwell monolayer with 6 hr pretreatment of 100 ng/ml IL-36α and/or 10 μM cycloheximide (CHX), with treatment applied to apical and basal chambers, representative of N=3 experiments; (F) is permeability apparent for HRMEC treated with IL-36α and/or 10 μM CHX, calculated as stated previously; (G) is rate of flux of 70 kDa FITC dextran through HRMEC transwell monolayer with 6 hr pretreatment of 100 ng/ml IL-36β and/or 10 μM CHX, with treatment applied to apical and basal chambers, representative of N=3 experiments; (H) is permeability apparent for HRMEC treated with IL-36β and/or CHX, calculated as stated previously, wherein T-tests were performed as statistical analysis;
(§2) Protein was extracted from cells using RIPA buffer containing protease inhibitors (Sigma). […]

[5] = test system: HRMEC; assay: Tube formation assay (Matrigel); details: HRMEC on matrigel, 100 ng/ml, 4 hours, vs unstimulated control
Protocol: Cells were seeded 2 days prior to the experiment in a T75 in complete growth media and allowed to become ˜80% confluent. They were placed in low serum media overnight prior to use in the experiment. 96 well plates were coated with 60 μl of Matrigel Basement Membrane Matrix (Corning) and placed in a 370C incubator for 30 minutes to set as per manufacturer's instructions. HRMEC were then seeded onto the plates at a density of 8×10^4 cells/ml and treated as indicated with cytokine in triplicate. The plates were placed in an Incucyte and phase contrast images of the wells were taken at 10× for 30 minute intervals. The angiogenesis analyser plug-in for ImageJ was used to analyse the images.

[6] = test system: ZO-1, tricellulin and occludin; assay: Western blot for tight junction proteins; details: HRMEC, 24 h, indicated concentrations
Protocol: as §1, §2

[7] = test system: HRMEC transwell monolayer; assay: Trans-endothelial electrical resistance (TEER) measurement; details: 100 ng/ml, 6 hr, vs untreated control
[8] = test system: HRMEC; assay: Proliferation assays (nuclei cell count, MTS/PMS); details: 24 hours
Protocol: HRMEC were seeded on coverslips in 6 well plates at a density of 5×10^4 cells/ml and allowed to grow overnight in growth media. They were then washed in PBS and placed in reduced serum media and incubated with treatment for 24 hour. The coverslip was then washed in PBS, fixed in ice cold methanol and stained with Hoechst (1:10000). The coverslips were then affixed to slides and imaged via fluorescence. N=10 images per slip were taken and averaged to give a cell count per coverslip. For the MTS/PMS assay (Promega) cells were seeded at a density of 5×10^4 cells/ml in a 96 well plate. They were allowed to grow overnight in complete growth media before being washed and placed in low-serum media with the treatment indicated for 24 hours before the MTS/PMS assay was carried out as per manufacturer's protocol.

[9] = test system: HRMEC transwell monolayer; assay: Inhibition of translation (cycloheximide) with 70 kDa FITC dextran flux; details: 100 ng/ml cytokine plus 10 μM cycloheximide (CHX), 6 hr
Protocol: HRMEC were grown in transwells as above. Once polarised, HRMEC were treated with 10 μM of the translation inhibitor cycloheximide (Sigma) and/or IL-36 cytokine. 70 kDa FITC dextran (Sigma) diluted to 1 mg/ml in low serum media was placed in apical chamber and performing a FITC flux assay as described above.

B1: IL-36α: recombinant human (rh) IL-36α (Peprotech) (protein, UniProt Q9UHA7 6-158, looked up)
Interleukin-36 alpha: KIDTPQQGSIQDINHRVWVLQDQTLIAVPRKDRMSPVTIALISCRHVETLEKDRGNPIYLGLNGLNLCLMCAKVGDQPTLQLKEKDIMDLYNQPEPVKSFLFYHSQSGRNSTFESVAFPGWFIAVSSEGGCPLILTQELGKANTTDFGLTMLF
For B1, the “rate of FITC-dextran migrating across the HRMEC monolayer” value [1] was “notably decreased”, the VEGFR2 expression [2] was “reduce VEGFR2 expression” and the “rate of wound closure and cell migration” value [3] was “increased the rate of wound closure and cell migration significantly”. For the same molecule, the VE-cadherin protein expression [4] was “Increased expression of VE-cadherin”, the length of tubes [5] was “potential ability to increase the length of the tubes” and the “expression of ZO-1, tricellulin and occludin protein” value [6] was “dose dependent increase in expression”. The TEER [7] was “significantly increased TEER”, the “number of cells (stained nuclei count)” value ([8]; 100 ng/ml) was “increase in the number of cells” and the “proliferation (MTS/PMS assay)” value ([8]; 50 or 100 ng/ml) was “significant increase in proliferation”. The “proliferation compared with VEGF (MTS/PMS assay)” value ([8]; VEGF 50 ng/ml positive control) was “neither cytokine was as effective as VEGF alone” and the “IL-36-dependent barrier enhancement under inhibition of protein translation” value [9] was “absolute loss”.
